Publication doi:10.1101/2025.03.15.643416

Molecular target: MMLVRT-WT (Moloney murine leukemia virus, UniProt P03355 660-1330)
Experiment: DSF thermal shift

B1: T/P (RNA template/DNA primer) (DNA:RNA)
DNA: TGGAATCAGGTGTCGCACTCTG
RNA: AACAGAGUGCGACACCUGAUUCCAU
B1: binds.
